Here are results for 13 proteins from paper doi:10.1101/2024.07.02.601760, “Multi-dimensional demarcation of phylogenetic groups of plant 14-3-3 isoforms using biochemical signatures” (bioRxiv, 2024).

Broadly, the stoichiometry N is a count of units in the complex or per binding partner.

B1: Arabidopsis thaliana 14-3-3 iota T32F (natural protein, UniProt Q9C5W6 1-268, looked up)
chain: MSSSGSDKERETFVYMAKLSEQAERYDEMVEFMKKVARVNSELTVEERNLLSVGYKNVIGARRASWRIMSSIEQKEESKGNESNVKQIKGYRQKVEDELANICQDILTIIDQHLIPHATSGEATVFYYKMKGDYYRYLAEFKTEQERKEAAEQSLKGYEAATQAASTELPSTHPIRLGLALNFSVFYYEIMNSPERACHLAKQAFDEAIAELDTLSEESYKDSTLIMQLLRDNLTLWTSDLPEDGGEDNIKTEESKQEQAKPADATEN
notes: 14-3-3 iota, Arabidopsis thaliana, single mutant T32F made by megaprimer PCR on pET28a-14-3-3 iota; Same limits as m9; also called M1; source: E. coli BL21(DE3), purified (IMAC, thrombin cleavage of the His6-tag, subtractive IMAC, preparative SEC)
B2: Arabidopsis thaliana 14-3-3 iota N84H (natural protein, UniProt Q9C5W6 1-268, looked up)
chain: MSSSGSDKERETFVYMAKLSEQAERYDEMVETMKKVARVNSELTVEERNLLSVGYKNVIGARRASWRIMSSIEQKEESKGNESHVKQIKGYRQKVEDELANICQDILTIIDQHLIPHATSGEATVFYYKMKGDYYRYLAEFKTEQERKEAAEQSLKGYEAATQAASTELPSTHPIRLGLALNFSVFYYEIMNSPERACHLAKQAFDEAIAELDTLSEESYKDSTLIMQLLRDNLTLWTSDLPEDGGEDNIKTEESKQEQAKPADATEN
notes: 14-3-3 iota, Arabidopsis thaliana, single mutant N84H made by megaprimer PCR on pET28a-14-3-3 iota; Same limits as m9; also called M2; source: E. coli BL21(DE3), purified (IMAC, thrombin cleavage of the His6-tag, subtractive IMAC, preparative SEC)
B3: Arabidopsis thaliana 14-3-3 iota G54A (natural protein, UniProt Q9C5W6 1-268, looked up)
chain: MSSSGSDKERETFVYMAKLSEQAERYDEMVETMKKVARVNSELTVEERNLLSVAYKNVIGARRASWRIMSSIEQKEESKGNESNVKQIKGYRQKVEDELANICQDILTIIDQHLIPHATSGEATVFYYKMKGDYYRYLAEFKTEQERKEAAEQSLKGYEAATQAASTELPSTHPIRLGLALNFSVFYYEIMNSPERACHLAKQAFDEAIAELDTLSEESYKDSTLIMQLLRDNLTLWTSDLPEDGGEDNIKTEESKQEQAKPADATEN
notes: 14-3-3 iota, Arabidopsis thaliana, single mutant G54A made by megaprimer PCR on pET28a-14-3-3 iota; Same limits as m9; also called M3; source: E. coli BL21(DE3), purified (IMAC, thrombin cleavage of the His6-tag, subtractive IMAC, preparative SEC)
B4: Arabidopsis thaliana 14-3-3 psi (natural protein, UniProt P42644 1-255, looked up)
chain: MSTREENVYMAKLAEQAERYEEMVEFMEKVAKTVDVEELSVEERNLLSVAYKNVIGARRASWRIISSIEQKEESKGNEDHVAIIKDYRGKIESELSKICDGILNVLEAHLIPSASPAESKVFYLKMKGDYHRYLAEFKAGAERKEAAESTLVAYKSASDIATAELAPTHPIRLGLALNFSVFYYEILNSPDRACSLAKQAFDDAIAELDTLGEESYKDSTLIMQLLRDNLTLWTSDMTDEAGDEIKEASKPDGAE
notes: 14-3-3 psi, Arabidopsis thaliana, non-epsilon group; construct provided by Prof; Robert J. Ferl; source: E. coli C41(DE3), purified (IMAC, thrombin cleavage of the His6-tag, subtractive IMAC, preparative SEC; aliquots before preparative SEC for SEC-MALS)
B5: Arabidopsis thaliana 14-3-3 phi (natural protein, UniProt P46077 1-267, looked up)
chain: MAAPPASSSAREEFVYLAKLAEQAERYEEMVEFMEKVAEAVDKDELTVEERNLLSVAYKNVIGARRASWRIISSIEQKEESRGNDDHVTTIRDYRSKIESELSKICDGILKLLDTRLVPASANGDSKVFYLKMKGDYHRYLAEFKTGQERKDAAEHTLTAYKAAQDIANAELAPTHPIRLGLALNFSVFYYEILNSPDRACNLAKQAFDEAIAELDTLGEESYKDSTLIMQLLRDNLTLWTSDMQDESPEEIKEAAAPKPAEEQKEI
notes: 14-3-3 phi, Arabidopsis thaliana, non-epsilon group; construct provided by Prof; Robert J. Ferl; source: E. coli C41(DE3), purified (IMAC, thrombin cleavage of the His6-tag, subtractive IMAC, preparative SEC; aliquots before preparative SEC for SEC-MALS)
B6: Arabidopsis thaliana 14-3-3 chi (natural protein, UniProt P42643 1-267, looked up)
chain: MATPGASSARDEFVYMAKLAEQAERYEEMVEFMEKVAKAVDKDELTVEERNLLSVAYKNVIGARRASWRIISSIEQKEESRGNDDHVSLIRDYRSKIETELSDICDGILKLLDTILVPAAASGDSKVFYLKMKGDYHRYLAEFKSGQERKDAAEHTLTAYKAAQDIANSELAPTHPIRLGLALNFSVFYYEILNSPDRACNLAKQAFDEAIAELDTLGEESYKDSTLIMQLLRDNLTLWTSDMQDDVADDIKEAAPAAAKPADEQQS
notes: 14-3-3 chi, Arabidopsis thaliana, non-epsilon group; source: E. coli BL21(DE3), purified (IMAC, thrombin cleavage of the His6-tag, subtractive IMAC, preparative SEC; aliquots before preparative SEC for SEC-MALS)
B7: Arabidopsis thaliana 14-3-3 lambda (natural protein, UniProt P48349 1-248, looked up)
chain: MAATLGRDQYVYMAKLAEQAERYEEMVQFMEQLVTGATPAEELTVEERNLLSVAYKNVIGSLRAAWRIVSSIEQKEESRKNDEHVSLVKDYRSKVESELSSVCSGILKLLDSHLIPSAGASESKVFYLKMKGDYHRYMAEFKSGDERKTAAEDTMLAYKAAQDIAAADMAPTHPIRLGLALNFSVFYYEILNSSDKACNMAKQAFEEAIAELDTLGEESYKDSTLIMQLLRDNLTLWTSDMQEQMDEA
notes: 14-3-3 lambda, Arabidopsis thaliana, non-epsilon group; construct provided by Prof; Robert J. Ferl; source: E. coli C41(DE3), purified (IMAC, thrombin cleavage of the His6-tag, subtractive IMAC, preparative SEC; aliquots before preparative SEC for SEC-MALS)
B8: Arabidopsis thaliana 14-3-3 epsilon (natural protein, UniProt P48347 1-254, looked up)
chain: MENEREKQVYLAKLSEQTERYDEMVEAMKKVAQLDVELTVEERNLVSVGYKNVIGARRASWRILSSIEQKEESKGNDENVKRLKNYRKRVEDELAKVCNDILSVIDKHLIPSSNAVESTVFFYKMKGDYYRYLAEFSSGAERKEAADQSLEAYKAAVAAAENGLAPTHPVRLGLALNFSVFYYEILNSPESACQLAKQAFDDAIAELDSLNEESYKDSTLIMQLLRDNLTLWTSDLNEEGDERTKGADEPQDEN
notes: 14-3-3 epsilon, Arabidopsis thaliana, epsilon group; pET28a construct obtained by gene synthesis; source: E. coli BL21(DE3), purified (IMAC, thrombin cleavage of the His6-tag, subtractive IMAC, preparative SEC; aliquots before preparative SEC for SEC-MALS)
B9: Arabidopsis thaliana 14-3-3 iota (natural protein, UniProt Q9C5W6 1-268, looked up)
chain: MSSSGSDKERETFVYMAKLSEQAERYDEMVETMKKVARVNSELTVEERNLLSVGYKNVIGARRASWRIMSSIEQKEESKGNESNVKQIKGYRQKVEDELANICQDILTIIDQHLIPHATSGEATVFYYKMKGDYYRYLAEFKTEQERKEAAEQSLKGYEAATQAASTELPSTHPIRLGLALNFSVFYYEIMNSPERACHLAKQAFDEAIAELDTLSEESYKDSTLIMQLLRDNLTLWTSDLPEDGGEDNIKTEESKQEQAKPADATEN
notes: 14-3-3 iota, Arabidopsis thaliana, epsilon group; pET28a construct obtained by gene synthesis; also called iota WT; source: E. coli BL21(DE3), purified (IMAC, thrombin cleavage of the His6-tag, subtractive IMAC, preparative SEC; aliquots before preparative SEC for SEC-MALS)
B10: Arabidopsis thaliana 14-3-3 nu (natural protein, UniProt Q96300 1-265, looked up)
chain: MSSSREENVYLAKLAEQAERYEEMVEFMEKVAKTVDTDELTVEERNLLSVAYKNVIGARRASWRIISSIEQKEESRGNDDHVSIIKDYRGKIETELSKICDGILNLLDSHLVPTASLAESKVFYLKMKGDYHRYLAEFKTGAERKEAAESTLVAYKSAQDIALADLAPTHPIRLGLALNFSVFYYEILNSPDRACSLAKQAFDEAISELDTLGEESYKDSTLIMQLLRDNLTLWNSDINDEAGGDEIKEASKHEPEEGKPAETGQ
notes: 14-3-3 nu, Arabidopsis thaliana (Col-0), non-epsilon group; source: E. coli BL21(DE3), purified (IMAC, thrombin cleavage of the His6-tag, subtractive IMAC, preparative SEC; aliquots before preparative SEC for SEC-MALS)
B11: Arabidopsis thaliana 14-3-3 omega (natural protein)
chain: MASGREEFVYMAKLAEQAERYEEMVEFMEKVSAAVDGDELTVEERNLLSVAYKNVIGARRASWRIISSIEQKEESRGNDDHVTAIREYRSKIETELSGICDGILKLLDSRLIPAAASGDSKVFYLKMKGDYHRYLAEFKTGQERKDAAEHTLAAYKSAQDIANAELAPTHPIRLGLALNFSVFYYEILNSPDRACNLAKQAFDEAIAELDTLGEESYKDSTLIMQLLRDNLTLWTSD
notes: 14-3-3 omega, Arabidopsis thaliana, non-epsilion group; pET28a construct obtained by gene synthesis; source: E. coli BL21(DE3), purified (IMAC, thrombin cleavage of the His6-tag, subtractive IMAC, preparative SEC; aliquots before preparative SEC for SEC-MALS)
B12: Arabidopsis thaliana 14-3-3 upsilon (natural protein, UniProt P42645 1-268, looked up)
chain: MSSDSSREENVYLAKLAEQAERYEEMVEFMEKVAKTVETEELTVEERNLLSVAYKNVIGARRASWRIISSIEQKEDSRGNSDHVSIIKDYRGKIETELSKICDGILNLLEAHLIPAASLAESKVFYLKMKGDYHRYLAEFKTGAERKEAAESTLVAYKSAQDIALADLAPTHPIRLGLALNFSVFYYEILNSSDRACSLAKQAFDEAISELDTLGEESYKDSTLIMQLLRDNLTLWTSDLNDEAGDDIKEAPKEVQKVDEQAQPPPSQ
notes: 14-3-3 upsilon, Arabidopsis thaliana (Col-0), non-epsilon group; source: E. coli BL21(DE3), purified (IMAC, thrombin cleavage of the His6-tag, subtractive IMAC, preparative SEC; aliquots before preparative SEC for SEC-MALS)
B13: Arabidopsis thaliana 14-3-3 mu (natural protein, UniProt Q96299 1-263, looked up)
chain: MGSGKERDTFVYLAKLSEQAERYEEMVESMKSVAKLNVDLTVEERNLLSVGYKNVIGSRRASWRIFSSIEQKEAVKGNDVNVKRIKEYMEKVELELSNICIDIMSVLDEHLIPSASEGESTVFFNKMKGDYYRYLAEFKSGNERKEAADQSLKAYEIATTAAEAKLPPTHPIRLGLALNFSVFYYEIMNAPERACHLAKQAFDEAISELDTLNEESYKDSTLIMQLLRDNLTLWTSDISEEGGDDAHKTNGSAKPGAGGDDAE
notes: 14-3-3 mu, Arabidopsis thaliana, epsilon group; pET28a construct obtained by gene synthesis; source: E. coli BL21(DE3), purified (IMAC, thrombin cleavage of the His6-tag, subtractive IMAC, preparative SEC; aliquots before preparative SEC for SEC-MALS)

The first data set concerns the molecule itself. As to the kind of experiment: native gel or EMSA; native PAGE, Tris-glycine pH 8.6, 15% or 15-25% gradient acrylamide, 2 h at room temperature, samples 0.33 mg/ml in SEC buffer; self-association, dimer to monomers. A general note: In EMSA bound probe runs differently from free probe, usually more slowly.
For the protein B1, the binding result is recorded as “binds”.

Take B2: the binding result is listed as “binds”.

In the case of B3, the binding result is “binds”.

The next data set deals with the molecule itself. As to the kind of experiment: SEC-MALS; Superdex 200 Increase 10/300, 0.8 ml/min; 65 µl of ~3 mg/ml or 100 μM per monomer loaded; 20 mM Tris-HCl pH 7.5, 150 mM NaCl, 5 mM βME, 3 mM NaN3; samples before preparative SEC; self-association, monomers to dimer (small tetramer peak for six isoforms). On the technique in general: Size exclusion chromatography separates by hydrodynamic size, large species first.
Take B4: the “stoichiometry N” value was 2.

Take B5: the “stoichiometry N” value turned out to be 2.

With B6, the “stoichiometry N” value came to 2.

Take B7: the “stoichiometry N” value was 2.

On to B8, for which the “stoichiometry N” value amounted to 2.

Consider B9, for which the “stoichiometry N” value was 2.

As to B10, the “stoichiometry N” value stood at 2.

Regarding B11, the “stoichiometry N” value was found to be 2.

Consider B12, for which the “stoichiometry N” value worked out at 2.

Consider B13, for which the “stoichiometry N” value stood at 2.
